Target: T1, cynomolgus monkey GPRC5D protein (cynomolgus monkey, UniProt Q9NZD1 1-343 (human entry))
T1 construct: also called CynoGPRC5D; on HEK293T-CynoGPRC5D cells
T1 chain: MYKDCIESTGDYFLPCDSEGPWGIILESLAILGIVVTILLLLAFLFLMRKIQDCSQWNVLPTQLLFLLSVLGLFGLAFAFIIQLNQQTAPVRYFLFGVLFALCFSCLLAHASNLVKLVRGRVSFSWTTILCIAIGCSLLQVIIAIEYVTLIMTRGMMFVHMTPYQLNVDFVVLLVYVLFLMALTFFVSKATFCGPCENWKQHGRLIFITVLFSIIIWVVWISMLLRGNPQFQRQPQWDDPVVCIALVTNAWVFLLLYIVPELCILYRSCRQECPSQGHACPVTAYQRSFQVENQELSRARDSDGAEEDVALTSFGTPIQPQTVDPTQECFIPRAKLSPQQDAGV
Assay: flow cytometry, HEK293T-CynoGPRC5D cells (sheet: 293T-cynoGPRC5D), PE anti-human IgG Fc secondary, MFI
Procedure: (§1) Whether the anti-GPRC5D chimeric antibodies in the present invention could bind to the human GPRC5D protein or cynomolgus monkey GPRC5D protein stably expressed on the cell surface was determined by cell binding experiments.
(§2) The HEK293T-HuGPRC5D cell line and HEK293T-CynoGPRC5D shown in Table 2 were subjected to enzymatic digestion to obtain single cell suspensions of the two types of cells. The single cell suspensions were centrifuged at room temperature at 400×g, and then the media were discarded. The resulting cell pellets were washed once with PBS and then resuspended in the serially diluted anti-GPRC5D chimeric antibodies shown in Table 5 and the control antibody GC5B596 (at an initial concentration of 133.3 nM, 4-fold gradient dilution, 8 concentrations in total), and the cells were incubated at 4° C. for 30 min. The cells were washed once with PBS, and then fluorescent secondary antibody R-PE-conjugated AffiniPure Goat Anti-Human IgG, Fcγ Fragment Specific (Jackson ImmunoResearch, Cat #109-116-098) diluted in a 1:200 ratio was added. The cells were incubated in the dark at 4° C. for 30 min. The cells were washed twice with PBS and then resuspended, and finally, two-channel fluorescence signals were detected using a BD Accuri C5 (BD Bioscience) flow cytometer.

Binder	EC50 (read off the curve)
chimeric antibody 29H12C9 (antibody, human IgG1, kappa, V domains shown, also called murine chimeric antibody 29H12C9; murine control antibody (29H12C9)) VH: QVQLQQPGAELVKPGASVKLSCKASGYTFTTHYMYWVKQRPGQGLEWIGGINPSNGATNFNEKFKTKATLTVDKSSSTAYMQLSSLTSEDSAVYYCTRVGGLSYTMDYWGQGTSVTVSS VL: DIVMSQSPSSLAVSVGEKVSMSCKSSQSLLYSSNQKNYLAWYQQKPGQSPKLLIYWASTRESGVPDRFTGSGYGTDFTLTISSMKAEDLAVYYCQQYYSYPRTFGGGTKLDIKR	~3 nM
chimeric antibody 39A9F1 (antibody, human IgG1, kappa, V domains shown, Murine variable regions on human IgG1 and kappa constant regions) VH: QVQLQQPGAELVKPGSSVKLSCKASGYTFTTYWMEWVKQRPGQGLEWIGEINPNNGRSNYNEKFQTKATLTVDKSSSTAYMQFSSLTSEDSAVYYCARERAGLTYWGQGTLVIVSA VL: DVVMTQTPLSLPVSLGDQASISCRSSQSLVHSNGNTYLHWYLQKPGQSPKLLIYKVSNRFSGVPDRFGGSGSGTDFTLKISRVEAEDLGVYFCSQSTHFPYTFGGGTKLEIKR	~4 nM

target: T2, human GPRC5D protein (human, UniProt Q9NZD1 1-345); assay: flow cytometry, HEK293T-HuGPRC5D cells (sheet: 293T-huGPRC5D), PE anti-human IgG Fc secondary, MFI
T2 construct: NCI-H929 cells express it endogenously in the functional assays; also called HuGPRC5D; huGPRC5D
T2 sequence (Q9NZD1 whole entry): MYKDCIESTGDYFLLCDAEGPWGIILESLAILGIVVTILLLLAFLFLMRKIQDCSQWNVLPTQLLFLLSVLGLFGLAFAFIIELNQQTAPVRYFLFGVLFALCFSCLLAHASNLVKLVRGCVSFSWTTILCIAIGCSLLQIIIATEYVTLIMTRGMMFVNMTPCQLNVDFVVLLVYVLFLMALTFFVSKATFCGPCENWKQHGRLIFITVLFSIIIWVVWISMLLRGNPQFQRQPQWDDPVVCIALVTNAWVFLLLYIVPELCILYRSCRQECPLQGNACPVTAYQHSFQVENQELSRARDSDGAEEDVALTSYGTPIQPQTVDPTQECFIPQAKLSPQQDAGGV
Procedure: as §1, §2

Binder	EC50 (read off the curve)
chimeric antibody 29H12C9 (antibody, human IgG1, kappa, V domains shown, also called murine chimeric antibody 29H12C9; murine control antibody (29H12C9)) VH: QVQLQQPGAELVKPGASVKLSCKASGYTFTTHYMYWVKQRPGQGLEWIGGINPSNGATNFNEKFKTKATLTVDKSSSTAYMQLSSLTSEDSAVYYCTRVGGLSYTMDYWGQGTSVTVSS VL: DIVMSQSPSSLAVSVGEKVSMSCKSSQSLLYSSNQKNYLAWYQQKPGQSPKLLIYWASTRESGVPDRFTGSGYGTDFTLTISSMKAEDLAVYYCQQYYSYPRTFGGGTKLDIKR	~3 nM
chimeric antibody 39A9F1 (antibody, human IgG1, kappa, V domains shown, Murine variable regions on human IgG1 and kappa constant regions) VH: QVQLQQPGAELVKPGSSVKLSCKASGYTFTTYWMEWVKQRPGQGLEWIGEINPNNGRSNYNEKFQTKATLTVDKSSSTAYMQFSSLTSEDSAVYYCARERAGLTYWGQGTLVIVSA VL: DVVMTQTPLSLPVSLGDQASISCRSSQSLVHSNGNTYLHWYLQKPGQSPKLLIYKVSNRFSGVPDRFGGSGSGTDFTLKISRVEAEDLGVYFCSQSTHFPYTFGGGTKLEIKR	~3 nM

target: T2, human GPRC5D protein; assay: as above; remark: another data set of the same source
Procedure: Whether the anti-GPRC5D humanized antibodies in the present invention could bind to the human GPRC5D protein stably expressed on the cell surface was determined by cell binding experiments. The HEK293T-HuGPRC5D cell line shown in Table 2 was subjected to enzymatic digestion to obtain a single cell suspension of the HEK293T-huGPRC5D cells. The single cell suspension was centrifuged at room temperature at 400×g, and then the medium was discarded. The cell pellet was washed once with PBS and then resuspended in the serially diluted anti-GPRC5D humanized antibodies and the murine chimeric antibody 29H12C9 (at an initial concentration of 166.67 nM, 4-fold gradient dilution, 8 concentration points in total), and the cells were incubated at 4° C. for 30 min. The cells were washed once with PBS, and then fluorescent secondary antibody R-PE-conjugated AffiniPure Goat Anti-Human IgG, Fcγ Fragment Specific (Jackson ImmunoResearch, Cat #109-116-098) diluted in a 1:200 ratio was added. The cells were incubated in the dark at 4° C. for 30 min. The cells were washed twice with PBS and then resuspended, and finally, two-channel fluorescence signals were detected using a Beckman Cytoflex flow cytometer.

Binder	binding result
humanized anti-GPRC5D antibody 29H2 (antibody, human IgG1, kappa, V domains shown, Human IgG1 / kappa) VH: QVQLVQSGAEVKKPGASVKVSCKASGYTFTTHYMYWVRQAPGQGLEWMGGINPSNGATNFNEKFKTRVTLTVDKSTSTAYMELSSLRSEDTAVYYCTRVGGLSYTMDYWGQGTLVTVSS VL: not shown	binds
humanized anti-GPRC5D antibody 29H6 (antibody, human IgG1, kappa, V domains shown, Human IgG1 / kappa) VH: QVQLVQSGAEVKKPGASVKVSCKASGYTFTTHYMYWVRQAPGQGLEWIGGINPSNGATNFNEKFKTKATLTVDKSTSTAYMELSSLRSEDTAVYYCTRVGGLSYTMDYWGQGTLVTVSS VL: not shown	binds
humanized anti-GPRC5D antibody 29H20 (antibody, human IgG1, kappa, V domains shown, Human IgG1 / kappa) VH: QVQLVQSGAEVKKPGASVKVSCKASGYTFTTHYMYWVRQAPGQGLEWIGGINPSNGATNFNEKFKTRVTLTVDKSISTAYMELSRLRSDDTAVYYCTRVGGLSYTMDYWGQGTLVTVSS VL: not shown	binds
humanized anti-GPRC5D antibody 29H21 (antibody, human IgG1, kappa, V domains shown, Human IgG1 / kappa) VH: QVQLVQSGAEVKKPGASVKVSCKASGYTFTTHYMYWVRQAPGQGLEWIGGINPSNGATNFNEKFKTRVTLTVDKSISTAYMELSRLRSDDTAVYYCTRVGGLSYTMDYWGQGTLVTVSS VL: not shown	binds
humanized anti-GPRC5D antibody 29H24 (antibody, human IgG1, kappa, V domains shown, Human IgG1 / kappa) VH: QVQLVQSGAEVKKPGASVKVSCKASGYTFTTHYMYWVKQAPGQGLEWIGGINPSNGATNFNEKFKTKATLTVDKSISTAYMELSRLRSDDTAVYYCTRVGGLSYTMDYWGQGTLVTVSS VL: not shown	binds

target: T2, human GPRC5D protein; assay: flow cytometry, HEK293T cells stably expressing human GPRC5D (sheet: 293T-huGPRC5D), PE anti-human IgG Fc secondary, MFI
Procedure: (2) Whether the anti-CD3/anti-GPRC5D bispecific antibodies in the present invention could bind to HEK293T cells stably expressing the human GPRC5D protein was determined by cell binding experiments. […] The plate was centrifuged at room temperature at 400×g, and then the supernatant was discarded. The cells were washed twice with PBS and centrifuged. The supernatant was discarded. The cell pellet was resuspended in fluorescent secondary antibody R-PE-conjugated AffiniPure Goat Anti-Human IgG, Fcγ Fragment Specific (Jackson ImmunoResearch, Cat #109-116-098) diluted in a 1:200 ratio. The cells were incubated in the dark at 4° C. for 30 min. The cells were washed twice with PBS, and 100 μL of PBS was added to each well to resuspend the cells. Fluorescence signals were detected using a Beckman Cytoflex flow cytometer.

Binder	EC50 (read off the curve)	binding result
anti-CD3/GPRC5D bispecific antibody Bi-29H6/23L2 (bispecific antibody, human IgG1, kappa, L234A L235A) heavy 1: QVQLVQSGAEVKKPGASVKVSCKASGYTFTTHYMYWVRQAPGQGLEWIGGINPSNGATNFNEKFKTKATLTVDKSTSTAYMELSSLRSEDTAVYYCTRVGGLSYTMDYWGQGTLVTVSSASTKGPSVFPLAPSSKSTSGGTAALGCLVKDYFPEPVTVSWNSGALTSGVHTFPAVLQSSGLYSLSSVVTVPSSSLGTQTYICNVNHKPSNTKVDKKVEPKSCDKTHTCPPCPAPEAAGGPSVFLFPPKPKDTLMISRTPEVTCVVVAVSHEDPEVKFNWYVDGVEVHNAKTKPREEQYNSTYRVVSVLTVLHQDWLNGKEYKCKVSNKALAAPIEKTISKAKGQPREPQVCTLPPSRDELTKNQVSLSCAVKGFYPSDIAVEWESNGQPENNYKTTPPVLDSDGSFFLVSKLTVDKSRWQQGNVFSCSVMHEALHNHYTQKSLSLSPGK heavy 2: not shown light: not shown	~3 nM	
anti-CD3/GPRC5D bispecific antibody Bi-29H6GE/23L2 (bispecific antibody, human IgG1, kappa, L234A L235A) heavy 1: QVQLVQSGAEVKKPGASVKVSCKASGYTFTTHYMYWVRQAPGQGLEWIGGINPSNEATNFNEKFKTKATLTVDKSTSTAYMELSSLRSEDTAVYYCTRVGGLSYTMDYWGQGTLVTVSSASTKGPSVFPLAPSSKSTSGGTAALGCLVKDYFPEPVTVSWNSGALTSGVHTFPAVLQSSGLYSLSSVVTVPSSSLGTQTYICNVNHKPSNTKVDKKVEPKSCDKTHTCPPCPAPEAAGGPSVFLFPPKPKDTLMISRTPEVTCVVVAVSHEDPEVKFNWYVDGVEVHNAKTKPREEQYNSTYRVVSVLTVLHQDWLNGKEYKCKVSNKALAAPIEKTISKAKGQPREPQVCTLPPSRDELTKNQVSLSCAVKGFYPSDIAVEWESNGQPENNYKTTPPVLDSDGSFFLVSKLTVDKSRWQQGNVFSCSVMHEALHNHYTQKSLSLSPGK heavy 2: not shown light: not shown	~3 nM	
anti-CD3/GPRC5D bispecific antibody Bi-29H6-1 (bispecific antibody) EPKSSDKTHTCPPCPAPEAAGGPSVFLFPPKPKDTLMISRTPEVTCVVVAVSHEDPEVKFNWYVDGVEVHNAKTKPREEQYNSTYRVVSVLTVLHQDWLNGKEYKCKVSNKALAAPIEKTISKAKGQPREPQVCTLPPSRDELTKNQVSLSCAVKGFYPSDIAVEWESNGQPENNYKTTPPVLDSDGSFFLVSKLTVDKSRWQQGNVFSCSVMHEALHNHYTQKSLSLSPGK heavy: not shown light: not shown	~6 nM	
anti-CD3/GPRC5D bispecific antibody Bi-29H6-3 (bispecific antibody) EPKSSDKTHTCPPCPAPEAAGGPSVFLFPPKPKDTLMISRTPEVTCVVVAVSHEDPEVKFNWYVDGVEVHNAKTKPREEQYNSTYRVVSVLTVLHQDWLNGKEYKCKVSNKALAAPIEKTISKAKGQPREPQVCTLPPSRDELTKNQVSLSCAVKGFYPSDIAVEWESNGQPENNYKTTPPVLDSDGSFFLVSKLTVDKSRWQQGNVFSCSVMHEALHNHYTQKSLSLSPGK heavy: not shown light: not shown	~10 nM	
anti-CD3/GPRC5D bispecific antibody Bi-29H6-2 (bispecific antibody, human IgG1, kappa, L234A L235A) heavy 1: QVQLVQSGAEVKKPGASVKVSCKASGYTFTTHYMYWVRQAPGQGLEWIGGINPSNGATNFNEKFKTKATLTVDKSTSTAYMELSSLRSEDTAVYYCTRVGGLSYTMDYWGQGTLVTVSSASTKGPSVFPLAPSSKSTSGGTAALGCLVKDYFPEPVTVSWNSGALTSGVHTFPAVLQSSGLYSLSSVVTVPSSSLGTQTYICNVNHKPSNTKVDKKVEPKSCDKTHTCPPCPAPEAAGGPSVFLFPPKPKDTLMISRTPEVTCVVVAVSHEDPEVKFNWYVDGVEVHNAKTKPREEQYNSTYRVVSVLTVLHQDWLNGKEYKCKVSNKALAAPIEKTISKAKGQPREPQVCTLPPSRDELTKNQVSLSCAVKGFYPSDIAVEWESNGQPENNYKTTPPVLDSDGSFFLVSKLTVDKSRWQQGNVFSCSVMHEALHNHYTQKSLSLSPGK heavy 2: not shown light: not shown	~2 nM	
anti-CD3/GPRC5D bispecific antibody Bi-29H6-5 (bispecific antibody, human IgG1, kappa, L234A L235A) heavy 1: QVQLVQSGAEVKKPGASVKVSCKASGYTFTTHYMYWVRQAPGQGLEWIGGINPSSGATNFNEKFKTKATLTVDKSTSTAYMELSSLRSEDTAVYYCTRVGGLSYTMDYWGQGTLVTVSSASTKGPSVFPLAPSSKSTSGGTAALGCLVKDYFPEPVTVSWNSGALTSGVHTFPAVLQSSGLYSLSSVVTVPSSSLGTQTYICNVNHKPSNTKVDKKVEPKSCDKTHTCPPCPAPEAAGGPSVFLFPPKPKDTLMISRTPEVTCVVVAVSHEDPEVKFNWYVDGVEVHNAKTKPREEQYNSTYRVVSVLTVLHQDWLNGKEYKCKVSNKALAAPIEKTISKAKGQPREPQVCTLPPSRDELTKNQVSLSCAVKGFYPSDIAVEWESNGQPENNYKTTPPVLDSDGSFFLVSKLTVDKSRWQQGNVFSCSVMHEALHNHYTQKSLSLSPGK heavy 2: not shown light: not shown		binds

From patent US20250092135A1 (NANJING LEADS BIOLABS, published 2025)
